Experiments:
[1] = molecular target: T1, IL-1 receptor on EL-4 membranes (Mus musculus, UniProt P13504); test: IL-1 radioreceptor competition binding assay
T1 construct: incubated at varying concentrations with EL-4 membranes; endogenous in cells; host or cells: EL-4 cell membranes
T1 sequence (P13504 20-576): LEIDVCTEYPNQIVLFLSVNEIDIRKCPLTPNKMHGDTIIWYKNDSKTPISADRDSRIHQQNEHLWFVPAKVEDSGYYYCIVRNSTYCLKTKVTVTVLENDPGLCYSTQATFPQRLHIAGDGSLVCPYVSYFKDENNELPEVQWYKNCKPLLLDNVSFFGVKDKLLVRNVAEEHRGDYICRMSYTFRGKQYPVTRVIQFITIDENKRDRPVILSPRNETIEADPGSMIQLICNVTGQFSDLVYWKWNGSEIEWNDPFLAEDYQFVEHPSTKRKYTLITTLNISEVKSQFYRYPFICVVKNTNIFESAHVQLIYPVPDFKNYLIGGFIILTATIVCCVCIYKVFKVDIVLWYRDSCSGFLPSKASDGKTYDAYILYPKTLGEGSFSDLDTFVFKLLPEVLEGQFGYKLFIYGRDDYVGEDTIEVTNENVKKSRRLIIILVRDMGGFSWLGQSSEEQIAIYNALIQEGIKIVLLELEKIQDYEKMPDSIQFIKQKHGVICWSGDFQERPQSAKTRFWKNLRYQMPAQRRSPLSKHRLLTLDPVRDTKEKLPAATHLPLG
Procedure: Pegylated IL-1ra was purified from the reaction mixture using hydrophobic exchange chromatography (Bio-Rad; HRLC MP7 HlC). A linear gradient with decreasing salt concentrations from 0.43 to 0.0M (NH4)2 SO4 in 50 mM sodium phosphate pH 7.0 in 20 minutes was used to separate pegylated IL-1ra and unmodified IL-1ra. Aliquots of fractions were evaluated by SDS-PAGE and pooled fractions were assayed in an IL-1 radioreceptor competition binding assay. [Kilian et al. J. Immunol., 136, 4509, (1986)]. Briefly, IL-1ra and PEG-IL-1ra were incubated at varying concentrations with EL-4 membranes for 30 min at 37° C. The [^125 I]IL-1 alpha was then added and the incubation continued for 30 min. The assay was terminated by vacuum filtration and the collection of cell bound [^125 I]IL-1 on filter plates. The concentration of IL-1ra or PEG-IL-1ra that inhibits binding of [^125l]IL- 1 by 50% (IC50) was determined graphically. […] The pegylated IL-1ra mixture retained its ability-to bind to the IL-1 receptor on EL-4 membranes within a factor 2 to 3 fold relative to the unmodified II1-1ra.

[2] = test system: rIL-1alpha induction of interleukin-6; test: Inhibition of rIL-1alpha induction of interleukin-6 in mice (pharmacodynamics); assay type: in vivo
Procedure: The pharmacodynamics of IL-1ra protein was evaluated in vivo by the ability of the IL-1ra to inhibit rIL-1alpha induction of interleukin-6. Serum from mice treated with rIL-1alpha contain high levels of IL-6, [McIntosh et al., Immunol. 143: 162, (1989)]. The administration of unmodified IL-1ra together with IL-1alpha (0 hr time point) inhibits the induction of IL-6. This test system was used to compare the pharmacodynamic properties of unmodified and PEG IL-1ra. […] Three hours later, serum samples were collected. IL-6 levels (units) were determined using a modification of an IL-6 assay that has been previously described [Van Snick et al., Proc. Natl. Acad. Sci. USA 83:9679, (1986)]. In the IL.-6 assay, B9 hybridoma cells were treated with two fold serial dilutions of the test sera in 96-well microtiter plates. Following a 3 day incubation at 37° C. in a humidified atmosphere comprised of 5% CO2 and 95% air, the wells were pulsed with 0.5 uCi of tritiated thymidine and incubated for an additional 18 hr. The cells were then harvested onto glass fiber filters and the level of tritiated thymidine incorporation was determined by scintillation counting. IL-6 activity is expressed as U/ml. IL-6 units are defined as the inverse of the serum dilution which produces half-maximal tritiated thymidine incorporation compared to a reference standard.

[3] = Pharmacokinetic profile: serum IL-1ra levels in mice after subcutaneous administration; assay type: in vivo; details: for Serum Concentration of IL-1ra: Table D2 (pegylated as in Example 6a), 100 ug s.c.; for Serum Level of IL-1ra: Table D4 (reagent of Example 11a); for Serum IL-1ra: Table D5 (reagent of Example 18a)
Procedure: To determine the pharmacokinetic profile of PEG-IL-1ra species, C57BF/6 mice were administered 100 ug of […] or pegylated IL-1ra species subcutaneously. Serum samples were collected after 1, 2, 3, 4 and 6 hours from mice that received unmodified IL-1ra and after 2, 4, 8, 10, and 24 hours from mice that received PEG-IL-1ra. The serum levels were determined in the EL4 membrane binding assay described in Example 6.

“IL-1ra: Interleukin-1 receptor antagonist, unmodified; apparent molecular weight 19 kD by SDS-PAGE” gave an IC50 ([1]; Example 6, Table VI: IL-1ra conjugated with reagent of Example 5, label = apparent molecular weight) of 2.0 ng/mL, an IC50 ([1]; Example 6A, Table VII: IL-1ra conjugated with reagent of Example 5a, label = apparent molecular weight (kD)) of 1.6 ng/mL and an IC50 ([1]; Example 12, Table XII: IL-1ra pegylated with reagent of Example 11, label = apparent molecular weight (kD)) of 2.0 ng/mL. It also gave an IC50 ([1]; Example 12A, Table XIII: IL-1ra pegylated with reagent of Example 11a, label = apparent molecular weight (kD)) of 0.8 ng/mL, an IC50 ([1]; Example 19, Table XIV: IL-1ra pegylated with reagent of Example 18, label = apparent molecular weight (kD)) of 2.0 ng/mL and an IC50 ([1]; Example 19A, Table XV: IL-1ra pegylated with reagent of Example 18a, label = apparent molecular weight (kD)) of 1.5 ng/mL. It also gave an IC50 ([1]; Example 26, Table XVIII: IL-1ra pegylated with reagent of Example 23, label = apparent molecular weight (kD)) of 2.0 ng/mL, an IC50 ([1]; Example 29, Table XX: IL-1ra pegylated with reagent of Example 28, label = molecular weight (kD)) of 1.4 ng/mL and an IC50 ([1]; Example 32, Table XXII: rIL-1ra conjugated with reagent of Example 31, label = apparent molecular weight (kD)) of 1.5 ng/mL. The IC50 ([1]; Example 38, Table XXV: rIL-1ra conjugated with the reagent described in Example 35 (so in the source), label = apparent molecular weight (kD)) was 1.0 ng/mL, the IC50 ([1]; IC50 of IL-1ra in this assay (general statement)) was 1 to 2.0 ng/mL and the “inhibition of the IL-1 response” value ([2]; Example 12, within 6 hours of administration) was “less than 50%”. For the same substance, the IL-6 ([2]; Table D1 (reagent of Example 5), 200 ug s.c. 0 hr prior to 0.2 ug rIL-1 alpha, IL-1 alone 28852 U/ml) was 772 Units/ml, the IL-6 ([2]; Table D1 (reagent of Example 5), 200 ug s.c. 6 hr prior to 0.2 ug rIL-1 alpha, IL-1 alone 28852 U/ml) was 8361 Units/ml and the IL-6 ([2]; Table D1 (reagent of Example 5), 200 ug s.c. 24 hr prior to 0.2 ug rIL-1 alpha, IL-1 alone 28852 U/ml) was 22525 Units/ml. It also gave an IL-6 ([2]; Table D1 (reagent of Example 5), 200 ug s.c. 48 hr prior to 0.2 ug rIL-1 alpha, IL-1 alone 28852 U/ml) of 18485 Units/ml, an IL-6 ([2]; Table D1 (reagent of Example 5), 200 ug s.c. 72 hr prior to 0.2 ug rIL-1 alpha, IL-1 alone 28852 U/ml) of 13220 Units/ml and an IL-6 ([2]; Table D3 (reagent of Example 11), 0 hr prior to IL-1 administration, IL-1 alone 27283 u/ml) of 4789 Units/ml. The IL-6 ([2]; Table D3 (reagent of Example 11), 6 hr prior to IL-1 administration, IL-1 alone 27283 u/ml) was 15324 Units/ml, the IL-6 ([2]; Table D3 (reagent of Example 11), 24 hr prior to IL-1 administration, IL-1 alone 27283 u/ml) was 24841 Units/ml and the IL-6 ([2]; Table D3 (reagent of Example 11), 48 hr prior to IL-1 administration, IL-1 alone 27283 u/ml) was 16348 Units/ml. The IL-6 ([2]; Table D3 (reagent of Example 11), 72 hr prior to IL-1 administration, IL-1 alone 27283 u/ml) was 12067 Units/ml, the IL-6 ([2]; Table D6 (reagent of Example 18), 0 hr prior to 0.05 ug rIL-1 alpha, IL-1 alone 9203 units/ml) was 521 Units/ml and the IL-6 ([2]; Table D6 (reagent of Example 18), 6 hr prior to 0.05 ug rIL-1 alpha, IL-1 alone 9203 units/ml) was 2334 Units/ml. For the same substance, the IL-6 ([2]; Table D6 (reagent of Example 18), 24 hr prior to 0.05 ug rIL-1 alpha, IL-1 alone 9203 units/ml) was 13486 Units/ml, the IL-6 ([2]; Table D6 (reagent of Example 18), 48 hr prior to 0.05 ug rIL-1 alpha, IL-1 alone 9203 units/ml) was 16577 Units/ml and the IL-6 ([2]; Table D6 (reagent of Example 18), 72 hr prior to 0.05 ug rIL-1 alpha, IL-1 alone 9203 units/ml) was 12800 Units/ml. For the same substance, the “Serum Concentration of IL-1ra” value ([3]; 1 hr after administration) was 400, the “Serum Concentration of IL-1ra” value ([3]; 2 hr after administration) was 130 and the “Serum Concentration of IL-1ra” value ([3]; 4 hr after administration) was 15. The “Serum Concentration of IL-1ra” value ([3]; 6 hr after administration) was 16, the “Serum Concentration of IL-1ra” value ([3]; time not given, line between 2 and 4 hr) was 40 and the “Serum Level of IL-1ra” value ([3]; 1 hr after administration) was 0.22 µg/mL. The “Serum Level of IL-1ra” value ([3]; 2 hr after administration) was 0.033 µg/mL, the “Serum Level of IL-1ra” value ([3]; 3 hr after administration) was 0.013 µg/mL and the “Serum Level of IL-1ra” value ([3]; 4 hr after administration) was 0.0053 µg/mL. For the same substance, the “Serum Level of IL-1ra” value ([3]; 6 hr after administration) was 0.0015 µg/mL, the “Serum IL-1ra” value ([3]; 1 hr after administration) was 580 ng/mL and the “Serum IL-1ra” value ([3]; 2 hr after administration) was 75 ng/mL. The “Serum IL-1ra” value ([3]; 3 hr after administration) was 30 ng/mL, the “Serum IL-1ra” value ([3]; 4 hr after administration) was 30 ng/mL and the “Serum IL-1ra” value ([3]; 6 hr after administration) was 8 ng/mL.

Reference: patent US5559213A, “Polyethylene-protein conjugates” (Hoffmann-La Roche Inc., priority 1995, dated 1996)
